B1: MIA2 (parent)
chain: SVIEPVQESSFRSRKIAVEDENDL
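Further: lentivirally expressed fusions sorted by FACS into six bins by GFP to DsRed ratio, PSI derived from sequencing read proportions per bin multiplied by bin number.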

Variants of: B1
Assay: protein stability index of a GFP-peptide fusion (GPS, HEK-293T) (PSI 1-6); higher = more stable
Details: c terminus: a fixed tail appended
SVIEPVGESSFRSRKIAVEDENDL gave a protein stability index of 5.13.
Work on SVIEPVQESSFHSRKIAVEDENDL yielded a protein stability index of 5.66.
Work on SVIEPVQESSFCSRKIAVEDENDL yielded a protein stability index of 4.82.
Work on SVIEPVQESSFKSRKIAVEDENDL yielded a protein stability index of 5.42.
SVIEPVQESSFFSRKIAVEDENDL showed a protein stability index of 4.83.
Variant SVIEPVQESSFLSRKIAVEDENDL has a protein stability index of 5.22.
For SVIEPVQESSFASRKIAVEDENDL, the protein stability index was 5.81.
With SVIEPVQESSFISRKIAVEDENDL the protein stability index was 5.12.
In the case of SVIEPVQESSFPSRKIAVEDENDL, the protein stability index is reported as 6.
SVIEPVQESSFDSRKIAVEDENDL gave a protein stability index of 5.6.
SVIEPVQESSFQSRKIAVEDENDL gave a protein stability index of 5.44.
Variant SVIEPVQESSFVSRKIAVEDENDL has a protein stability index of 5.36.
SVIEPVQESSFSSRKIAVEDENDL showed a protein stability index of 5.94.
For SVIEPVQESSFNSRKIAVEDENDL, the protein stability index was 5.61.
With SVIEPVQESSFGSRKIAVEDENDL the protein stability index was 5.53.
SVIEPVQESSFESRKIAVEDENDL showed a protein stability index of 5.75.
For SVIEPVQESSFWSRKIAVEDENDL, the protein stability index was 4.55.
SVIEPVQESSFTSRKIAVEDENDL gave a protein stability index of 5.46.
SVIEPVQESSFYSRKIAVEDENDL showed a protein stability index of 4.98.
Variant SVIEPVQESSFMSRKIAVEDENDL has a protein stability index of 5.41.
In the case of SVREPVQESSFRSRKIAVEDENDL, the protein stability index is reported as 5.59.
SVSEPVQESSFRSRKIAVEDENDL gave a protein stability index of 4.84.
In the case of SVWEPVQESSFRSRKIAVEDENDL, the protein stability index is reported as 5.13.
Work on SVYEPVQESSFRSRKIAVEDENDL yielded a protein stability index of 5.42.
In the case of SVTEPVQESSFRSRKIAVEDENDL, the protein stability index is reported as 5.6.
With SVVEPVQESSFRSRKIAVEDENDL the protein stability index was 5.62.
SVQEPVQESSFRSRKIAVEDENDL showed a protein stability index of 4.57.
In the case of SVIEPIQESSFRSRKIAVEDENDL, the protein stability index is reported as 5.34.
Work on SVIEPMQESSFRSRKIAVEDENDL yielded a protein stability index of 5.46.
Variant SVIEPSQESSFRSRKIAVEDENDL has a protein stability index of 5.27.
For SVIEPQQESSFRSRKIAVEDENDL, the protein stability index was 5.37.
SVIEPPQESSFRSRKIAVEDENDL showed a protein stability index of 5.18.
SVIEPEQESSFRSRKIAVEDENDL showed a protein stability index of 5.76.
In the case of SVIEPWQESSFRSRKIAVEDENDL, the protein stability index is reported as 4.53.
SVIEPGQESSFRSRKIAVEDENDL gave a protein stability index of 5.75.
With SVIEPAQESSFRSRKIAVEDENDL the protein stability index was 5.31.
SVIEPDQESSFRSRKIAVEDENDL gave a protein stability index of 5.65.
SVIEPCQESSFRSRKIAVEDENDL showed a protein stability index of 5.66.
For SVIEPNQESSFRSRKIAVEDENDL, the protein stability index was 4.92.
In the case of SVIEPFQESSFRSRKIAVEDENDL, the protein stability index is reported as 4.94.
In the case of SVIEPKQESSFRSRKIAVEDENDL, the protein stability index is reported as 5.62.
SVIEPLQESSFRSRKIAVEDENDL showed a protein stability index of 5.16.
With SVIEPYQESSFRSRKIAVEDENDL the protein stability index was 4.91.
In the case of SVIEPHQESSFRSRKIAVEDENDL, the protein stability index is reported as 5.48.
Variant SVIEPTQESSFRSRKIAVEDENDL has a protein stability index of 5.39.
With SVIEPRQESSFRSRKIAVEDENDL the protein stability index was 5.27.
SVIEPVQTSSFRSRKIAVEDENDL showed a protein stability index of 4.52.

— the supplement of paper PMC10567573
